“Also recorded” adds a separate entry of the source.
T1: Mouse LAMP1 (Mus musculus, UniProt P11438)
T1 construct: made in house; host or cells: HEK293 (293-F), transient expression, IMAC-purified
T1 sequence (P11438 with tags, fused parts or gaps): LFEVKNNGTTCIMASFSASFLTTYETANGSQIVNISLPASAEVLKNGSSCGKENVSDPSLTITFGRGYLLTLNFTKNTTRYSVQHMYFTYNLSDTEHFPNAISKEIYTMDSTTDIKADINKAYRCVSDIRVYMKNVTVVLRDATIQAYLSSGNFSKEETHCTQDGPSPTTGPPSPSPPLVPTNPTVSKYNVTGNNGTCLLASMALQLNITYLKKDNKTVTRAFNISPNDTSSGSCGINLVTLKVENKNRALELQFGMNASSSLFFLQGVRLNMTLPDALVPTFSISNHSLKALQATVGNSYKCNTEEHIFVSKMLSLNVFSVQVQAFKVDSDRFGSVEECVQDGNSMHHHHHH

T2: LAMP1 (SEQ ID NO: 28 protein) (Homo sapiens, UniProt P11279)
T2 construct: made in house; host or cells: HEK293 (293-F), transient expression, IMAC-purified
T2 sequence (P11279 with tags, fused parts or gaps): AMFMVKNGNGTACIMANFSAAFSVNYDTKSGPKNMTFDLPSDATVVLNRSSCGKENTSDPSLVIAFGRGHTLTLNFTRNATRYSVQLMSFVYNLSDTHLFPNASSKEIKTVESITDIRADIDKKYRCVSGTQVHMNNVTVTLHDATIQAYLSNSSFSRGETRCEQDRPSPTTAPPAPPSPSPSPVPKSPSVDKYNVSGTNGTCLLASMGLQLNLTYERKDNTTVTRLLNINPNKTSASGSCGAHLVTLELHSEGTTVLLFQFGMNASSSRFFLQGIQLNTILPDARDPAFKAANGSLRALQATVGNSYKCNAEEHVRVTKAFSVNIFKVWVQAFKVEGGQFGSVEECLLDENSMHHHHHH

B1: MAb1: murine monoclonal anti-LAMP1 antibody, VH SEQ ID NO: 1, VL SEQ ID NO: 5 (antibody, V domains shown)
VH: QVQLQQSGAELVKPGASVKMSCKASGYIFTNYNIHWVKKSPGQGLEWIGAIYPGNGDAPYSQKFKDKATLTADKSSSTTYMQLSRLTSEDSAVYYCVRANWDVAFAYWGQGTLVSVSA
VL: DIQMTQSPPSLSASLGGKVTITCKASQDIDRYMAWYQDKPGKGPRLLIHDTSTLQPGIPSRFSGSGSGRDYSFSISNLEPEDIATYYCLQYDNLWTFGGGTKLEIK
modifications: Antibody Fragment; antibody fragment
B2: MAb2: murine monoclonal anti-LAMP1 antibody, VH SEQ ID NO: 8, VL SEQ ID NO: 12 (antibody, V domains shown)
VH: QVQLQQSAAELARPGASVKMSCKASGYTFTSYTMHWVKQRPGQGLEWIGYFNPSSGYPEYNQKFKDKTTLTADKSSNTAFIQLNSLTSEDSAVYYCSRGYYYGSRGYALDFWGQGASVTVSS
VL: NIVLTQSPVSLAVSLGQRATISCRASESVDINGNTFMHWYQQKPGQSPKLVIYAASNIESGVPARFSGSGSSTDFTFTIDPVEADDVATYYCQQNIEDPWTFGGGTKVEIK
modifications: antibod fragment; antibody fragment

Key:
Mouse LAMP1 = biological target: T1, Mouse LAMP1; assay: ELISA on mouse LAMP1 extracellular domain; assay type: binding
Description: The high level of glycosylation of the antigen required a specific approach to determine the binding site of the anti-LAMP1 mAbs on LAMP1. […] This absence of binding was used to design several chimeric LAMP1 proteins in which one or several of the LAMP1 domains (Loop1-Loop4) in the human construct were replaced by the murine counterpart. The absence of binding once the binding site of the antibody was replaced by the murine counterpart allowed for identification of the antibody binding side.
Secreted LAMP1 proteins described in example 6.2 were used to identify the binding domain to anti-LAMP1 mAbs by ELISA.

[1] = test system: cynomolgus LAMP1 expressed at the cell surface of recombinant HCT116; assay: FACS on recombinant HCT116 stable clones expressing cynomolgus LAMP1; assay type: binding, cynomolgus monkey; conditions: HCT116 stable clone
Procedure: HCT116 cells were infected by a lentiviral vector allowing stable integration of the human or the cynomolgus LAMP1 CDS in genomic DNA of cells. Individual clones with different densities of human or cynomolgus LAMP1 cell surface localization were derived from a pool of HCT116 infected cells. […] 100 μL/well of goat anti-human IgG conjugated with Alexa488 (Invitrogen; #A11013) was added for 1 h at 4° C. and washed two times with PBS 1% BSA. The antibody binding was evaluated after centrifugation and resuspension of cells in 100 μl fixing solution (paraformaldehyde at 4% in PBS). Samples were read using Galaxy® Flow Cytometry System (Partec). EC50 values were estimated using BIOST@T-SPEED software.
100 μL/well of goat anti-mouse IgG conjugated with Alexa647 (Invitrogen; #A2135) was added for 45 min at 4° C. and washed three times with PBS 1% BSA. The antibody binding was evaluated after centrifugation and re-suspension of cells by adding 200 μl/well PBS 1% BSA and read using Guava® easyCyte™ 8HT Flow Cytometry System. EC50 values were estimated using BIOST@T-SPEED software.

[2] = biological target: T2, LAMP1 (SEQ ID NO: 28 protein); assay: Affinity to LAMP1 by SPR (BIAcore 2000); assay type: binding
Procedure: The use of surface plasmon resonance to determine is known to the skilled in the art. In one example the binding kinetics of for example the murine, chimer or humanized anti-LAMP1 mAbs were determined by surface plasmon resonance assay using typically a BIAcore 2000 (BIAcore Inc., Uppsala, N.J.). Therefore, for example a CM5 BIAcore biosensor chip was docked into the instrument and activated with for example 70 μL of 1:1 NHS/EDC at room temperature. Typically, a mouse anti-αhuman Fc IgG1 (BIAcore #BR-1008-39) and rabbit anti-αmurine Fc IgG1 (BIAcore #BR-1008-38) (50 μg/mL in 1 M acetate buffer, pH5) were immobilized on the activated chips in all flow cells. The immobilization was carried out at a flow rate of for example 10 μL/min up to saturation. The chip was then blocked by for example injection of 70 μL of ethanolamine-HCl, pH 8.5, followed by one wash with 3 M MgCl2 for anti-αhuman Fc IgG1 and one wash with 10 mM Glycine-HCl pH 1.7 for anti-αmurine Fc IgG1. To measure the binding of for example anti-LAMP1 mAbs to LAMP1, antibodies were used at 1-5 μg/mL in BIAcore running buffer (HBS-EP). The antigen for example (Sequence ID No 28 protein produced as described in example 6.2) was injected from for example 1 to 256 nM. Following completion of the injection phase, dissociation was monitored in a BIAcore running buffer at the same flow rate for typically 600 sec. The surface was typically regenerated between injections using for example 2×5 μL 3 M MgCl2 (2×30 s) or anti-αhuman Fc IgG1 and 1×30 μL 10 mM Glycine-HCl pH 1.7 for anti-αmurine Fc IgG1 (180 s). Individual sensorgrams were typically analyzed using BIAevaluation software.
The binding kinetics of the murine, chimer or humanized anti-LAMP1 mAbs were determined by surface plasmon resonance assay using a BIAcore 2000 (BIAcore Inc., Uppsala, N.J.). Briefly, a CM5 BIAcore biosensor chip was docked into the instrument and activated with 70 μL of 1:1 NHS/EDC at room temperature. A mouse anti-αhuman Fc IgG1 (BIAcore #BR-1008-39) and rabbit anti-αmurine Fc IgG1 (BIAcore #BR-1008-38) (50 μg/mL in 1 M acetate buffer, pH5) were immobilized on the activated chips in all flow cells. The immobilization was carried out at a flow rate of 10 μL/min up to saturation. The chip was then blocked by injection of 70 μL of ethanolamine-HCl, pH 8.5, followed by one wash with 3 M MgCl2 for anti-αhuman Fc IgG1 and one wash with 10 mM Glycine-HCl pH 1.7 for anti-αmurine Fc IgG1. To measure the binding of anti-LAMP1 mAbs to LAMP1, antibodies were used at 1-5 μg/mL in BIAcore running buffer (HBS-EP). The antigen (SEQ ID NO: 28 protein produced as described in example 6.2) was injected from 1 to 256 nM. Following completion of the injection phase, dissociation was monitored in a BIAcore running buffer at the same flow rate for 600 sec. The surface was regenerated between injections using 2×5 μL 3 M MgCl2 (2×30 s) or anti-αhuman Fc IgG1 and 1×30 μL 10 mM Glycine-HCl pH 1.7 for anti-αmurine Fc IgG1 (180 s). Individual sensorgrams were analyzed using BIAevaluation software.

cynomolgus LAMP1 expressed at the cell surface of recombinant HCT116, sequence (as listed by the source): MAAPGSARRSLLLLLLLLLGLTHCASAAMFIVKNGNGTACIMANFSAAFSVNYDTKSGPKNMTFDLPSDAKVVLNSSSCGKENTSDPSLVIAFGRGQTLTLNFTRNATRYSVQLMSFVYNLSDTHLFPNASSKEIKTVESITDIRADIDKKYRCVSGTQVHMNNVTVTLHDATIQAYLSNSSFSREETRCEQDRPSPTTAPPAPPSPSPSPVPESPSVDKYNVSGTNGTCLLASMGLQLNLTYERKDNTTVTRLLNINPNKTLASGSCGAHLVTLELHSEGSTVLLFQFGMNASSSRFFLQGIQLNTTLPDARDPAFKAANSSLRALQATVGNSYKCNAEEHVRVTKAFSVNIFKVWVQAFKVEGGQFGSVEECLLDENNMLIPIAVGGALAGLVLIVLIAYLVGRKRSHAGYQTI

Molecule | EC50 (nM) Mouse LAMP1 (Mouse LAMP1) | EC50 [1] [nM] | Kd [2] [nM] | ka [2] [M⁻¹ s⁻¹] | kd [2] [s⁻¹]
B1 | do not show any binding; also recorded: No binding | 5.5 | 4.8 | 148000 | 0.00071
B2 | do not show any binding; also recorded: No binding | 6.6 | 63.5 | 63300 | 0.00402

Source: patent publication US9809653B2, “Anti-LAMP1 antibodies and antibody drug conjugates, and uses thereof” (SANOFI, priority 2012, dated 2017)
